In article PMC5018360 (2017):
Blank lines part the entries; values can stand above or below the binder they belong to.

Molecular target: T1, MCL-1 (Mus musculus, UniProt P97287)
T1 chain: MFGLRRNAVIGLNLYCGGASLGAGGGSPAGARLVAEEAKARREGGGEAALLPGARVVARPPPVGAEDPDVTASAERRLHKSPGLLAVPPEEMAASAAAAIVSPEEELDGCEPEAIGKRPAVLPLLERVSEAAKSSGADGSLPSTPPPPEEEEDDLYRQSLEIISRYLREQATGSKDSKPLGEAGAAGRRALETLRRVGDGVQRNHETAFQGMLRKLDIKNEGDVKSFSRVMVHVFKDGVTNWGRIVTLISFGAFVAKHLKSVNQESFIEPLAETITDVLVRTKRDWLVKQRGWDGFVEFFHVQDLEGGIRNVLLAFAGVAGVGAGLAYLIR
Test: surface plasmon resonance

Kd: 134 nM
B1: BID BH3 peptide (peptide)
chain: EDIIRNIARHLAQVGDSMDRSI

Kd: 3440 nM
B2: BOK BH3 peptide BH3 (peptide)
chain: GRLAEVCTVLLRLGDELEQIRPSVY
